The labels stand for the following.
B1: Tsg101 UEV domain (residues 2–145) (domain or fragment, human)
chain: GAVSESQLKKMVSKYKYRDLTVRETVNVITLYKDLKPVLDSYVFNDGSSRELMNLTGTIPVPYRGNTYNIPICLWLLDTYPYNPPICFVKPTSSMTIKTGKHVDANGKIYLPYLHEWKHPQSDLLGLIQVMIVVFGDEPPVFSRP
notes: non-native glycine at the N-terminus (residue 1) left by TEV protease cleavage; Tsg101, ubiquitin E2 variant (UEV) domain, residues 2-145; the word human is printed for the full-length Tsg101 plasmids, not for this construct itself; also called Tsg101^2–145; 15N-Tsg101 UEV; not shown: His6, N-terminal, cleaved

What all share (conditions): both partners purified
The target in one assay is T1, wild-type ubiquitin (UniProt P0CG48 1-76).
T1 construct: ubiquitin, wild type, unlabeled, encoded in pET-21a; source: E. coli BL21-Gold(DE3), purified (acid precipitation, HiTrap SP ion exchange, S75 gel filtration)
As to the kind of experiment: NMR titration; HSQC spectra of 15N-labelled Tsg101 UEV or UEV-N16 (200 μM) at 1:0, 1:0.5 and 1:1 ratio to unlabeled ubiquitin; 20 mM potassium phosphate, 50 mM NaCl, pH 5.8.

In assay [1] the target is B1. Nature of the assay: NMR titration; chemical shift perturbations of 15N-labelled Tsg101 UEV or UEV-N16 (200 μM) on addition of PTAP peptide at a final 1:1 ratio; 20 mM potassium phosphate, 50 mM NaCl, pH 5.8.
Assay [2] addresses T2, Tsg101 UEV-N16 complex (UEV domain with N16 covalently attached at C73) (human, UniProt Q99816 2-145, C73 covalently attached (disulfide linkage) to the activated sulfenamide form of N16 (tenatoprazole)).
T2 construct: non-native glycine at the N-terminus (residue 1) left by TEV protease cleavage; Tsg101, ubiquitin E2 variant (UEV) domain, residues 2-145, as m1; same polypeptide as m1; also called N16-Tsg101 UEV complex; Tsg101-N16; source: E. coli Rosetta 2 (DE3) pLysS, purified as m1, then incubated with N16 in a 10:1 ratio (N16 excess); not shown: His6, N-terminal, cleaved
T2 sequence: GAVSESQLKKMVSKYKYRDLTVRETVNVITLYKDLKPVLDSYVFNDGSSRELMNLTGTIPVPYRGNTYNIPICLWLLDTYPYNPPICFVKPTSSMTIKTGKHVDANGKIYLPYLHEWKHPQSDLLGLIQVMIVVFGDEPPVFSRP
Described as above.

With B1, the binding result in the assay with wild-type ubiquitin is “binds”.

B2: PTAP peptide (Ace-NFLQSRPEPTAPPEE-CONH2) (peptide)
peptide: Ac-NFLQSRPEPTAPPEE-NH2
notes: also called Gag PTAP peptide; source: synthetic peptide (Bio-Synthesis, Texas)
With B2, the binding result in assay [1] and in assay [2] was “binds” each time.

Values taken from article PMC5680296, “Tsg101 chaperone function revealed by HIV-1 assembly inhibitors” (Nature Communications, 2017).
